Source: the supplement of paper PMC10126150
± gives the standard deviation of the averaged measurements.

Tested on: ATP
Experiment: switch fluorescence ratio, 500 uM ATP over buffer (Cy3 cluster intensity, sum of 5 cycles each) (fold (ratio)); higher = stronger signal-on switching upon ATP binding; sequences stand for … in TCGTCGGCAGCGTCAGATGTGTATAAGAGACAGTTTTTTTTTTTTTTTTTTTTTTTTT…TC
Settings: aptamer strand: ATP DNA aptamer (quencher-CACCTGGGGGAGTATTGCGGAGGAAGG + anchor), 100 nM annealed; ATP concentration: 500 uM
In short: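 Clusters with intensities outside 100-1000 RFU were excluded. The remaining Cy3-labelled switching-strand clusters on a modified Illumina MiSeq flow-cell had been annealed to 100 nM quencher-labelled ATP aptamer and imaged in selection buffer, then after 15 min with 500 uM ATP at 22 °C, for five cycles separated by NaOH stripping and re-annealing. The fluorescence ratio, averaged per switch-domain sequence, is each cluster's summed target-cycle Cy3 intensity over its summed buffer-cycle Cy3 intensity.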
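Note: ATP exposure 15 min at 22 °C before imaging.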

| Sequence | switch fluorescence ratio |
| --- | --- |
| GGGGGGCTGT | 0.973 ± 0.047 |
| GGGGGGCTTC | 0.975 ± 0.019 |
| GGGGGGGATA | 1 ± 0.038 |
| GGGGGGGCAC | 1.01 ± 0.029 |
| GGGGGGGGG | 1 ± 0.04 |
| GGGGGGGTAA | 0.993 ± 0.027 |
| GGGGGGGTCC | 0.99 ± 0.025 |
| GGGGGGGTCT | 0.973 ± 0.044 |
| GGGGGGTAA | 1.01 ± 0.019 |
| GGGGGGTAAA | 1.04 ± 0.075 |
| GGGGGGTACC | 1.08 ± 0.13 |
| GGGGGGTAGG | 1.01 ± 0.029 |
| GGGGGGTCAG | 1.01 ± 0.025 |
| GGGGGGTCTC | 0.996 ± 0.029 |
| GGGGGGTGTA | 1 ± 0.055 |
| GGGGGGTTAA | 1.02 ± 0.028 |
| GGGGGGTTGG | 0.989 ± 0.031 |
| GGGGGTAAGG | 0.987 ± 0.034 |
| GGGGGTACAC | 1.01 ± 0.025 |
| GGGGGTACGT | 0.989 ± 0.03 |
| GGGGGTATGG | 0.983 ± 0.032 |
| GGGGGTATGT | 0.997 ± 0.02 |
| GGGGGTCAGC | 1 ± 0.025 |
| GGGGGTCG | 1.03 ± 0.081 |
| GGGGGTCGCG | 0.991 ± 0.034 |

| Sequence | switch fluorescence ratio |
| --- | --- |
| GGGGGTCGGG | 1 ± 0.036 |
| GGGGGTGCAG | 0.975 ± 0.011 |
| GGGGGTGGG | 1.03 ± 0.069 |
| GGGGGTGTCA | 0.968 ± 0.0099 |
| GGGGGTTACG | 0.998 ± 0.03 |
| GGGGGTTAGA | 1 ± 0.035 |
| GGGGGTTATA | 0.965 ± 0.016 |
| GGGGGTTCCG | 0.98 ± 0.021 |
| GGGGGTTGCA | 0.965 ± 0.016 |
| GGGGGTTGGG | 1.01 ± 0.043 |
| GGGGGTTTAA | 1.02 ± 0.014 |
| GGGGGTTTGC | 0.991 ± 0.059 |
| GGGGGTTTTG | 0.993 ± 0.038 |
| GGGGTAAGGG | 1 ± 0.028 |
| GGGGTAAGGT | 0.99 ± 0.036 |
| GGGGTAATCA | 0.999 ± 0.018 |
| GGGGTAATCC | 1.07 ± 0.14 |
| GGGGTAATGG | 0.993 ± 0.034 |
| GGGGTACGTA | 1 ± 0.08 |
| GGGGTACGTT | 1 ± 0.032 |
| GGGGTACTAC | 1.003 ± 0.0053 |
| GGGGTAGCCT | 1 ± 0.04 |
| GGGGTAGGTG | 1.08 ± 0.068 |
| GGGGTAGTGG | 0.981 ± 0.05 |
| GGGGTAGTTT | 1.02 ± 0.027 |

| Sequence | switch fluorescence ratio |
| --- | --- |
| GGGGTCACGG | 1.006 ± 0.0027 |
| GGGGTCAGCC | 1.06 ± 0.13 |
| GGGGTCCAAG | 1 ± 0.017 |
| GGGGTCGACG | 1.033 ± 0.0092 |
| GGGGTCGGGC | 0.998 ± 0.015 |
| GGGGTCGGTT | 1.01 ± 0.051 |
| GGGGTGAATG | 0.974 ± 0.04 |
| GGGGTGACGG | 1.004 ± 0.0055 |
| GGGGTGAGGG | 0.971 ± 0.032 |
| GGGGTGAGTT | 0.931 ± 0.072 |
| GGGGTGATCT | 1.02 ± 0.034 |
| GGGGTGATGC | 1.07 ± 0.061 |
| GGGGTGATGG | 1.02 ± 0.02 |
| GGGGTGATGT | 0.9803 ± 0.0066 |
| GGGGTGCTAT | 1.01 ± 0.043 |
| GGGGTGGCCA | 0.99 ± 0.0098 |
| GGGGTGGGCG | 1.01 ± 0.058 |
| GGGGTGGTTA | 0.9948 ± 0.005 |
| GGGGTGTCGG | 1.05 ± 0.14 |
| GGGGTGTGTG | 0.986 ± 0.021 |
| GGGGTGTTTG | 0.981 ± 0.022 |
| GGGGTTAAAA | 0.973 ± 0.024 |
| GGGGTTAAGG | 0.978 ± 0.029 |
| GGGGTTAAGT | 0.98 ± 0.014 |
| GGGGTTAATA | 1 ± 0.067 |

| Sequence | switch fluorescence ratio |
| --- | --- |
| GGGGTTACGC | 1.03 ± 0.059 |
| GGGGTTAGGA | 0.979 ± 0.019 |
| GGGGTTATGT | 0.979 ± 0.021 |
| GGGGTTATTT | 0.988 ± 0.038 |
| GGGGTTCAGC | 0.978 ± 0.038 |
| GGGGTTCCGG | 0.941 ± 0.032 |
| GGGGTTCTGA | 0.974 ± 0.032 |
| GGGGTTGGAA | 0.9873 ± 0.0056 |
| GGGGTTGGG | 1.015 ± 0.0031 |
| GGGGTTGGGC | 1 ± 0.028 |
| GGGGTTGTAA | 0.9938 ± 0.0056 |
| GGGGTTTACT | 1.01 ± 0.021 |
| GGGGTTTGCT | 0.973 ± 0.033 |
| GGGGTTTGTA | 0.98 ± 0.027 |
| GGGGTTTTCC | 1.01 ± 0.014 |
| GGGGTTTTTA | 0.995 ± 0.034 |
| GGGTAAGATG | 0.992 ± 0.016 |
| GGGTAAGGTG | 1.3 ± 0.091 |
| GGGTAAGGTT | 0.985 ± 0.028 |
| GGGTAAGTTG | 0.962 ± 0.05 |
| GGGTAATAAA | 1.019 ± 0.0052 |
| GGGTACCTGT | 1.01 ± 0.034 |
| GGGTACTAGT | 1.05 ± 0.023 |
| GGGTACTGAT | 1.01 ± 0.024 |
| GGGTACTTTT | 1 ± 0.0091 |

| Sequence | switch fluorescence ratio |
| --- | --- |
| GGGTAGAGGA | 0.99 ± 0.03 |
| GGGTAGAGTG | 1.006 ± 0.0019 |
| GGGTAGCTAT | 0.9739 ± 0.0049 |
| GGGTAGGGGC | 1.02 ± 0.026 |
| GGGTAGTGTA | 0.995 ± 0.012 |
| GGGTATAACG | 0.974 ± 0.035 |
| GGGTATAGTT | 0.992 ± 0.024 |
| GGGTATCGAG | 1.01 ± 0.019 |
| GGGTATGAGG | 0.976 ± 0.032 |
| GGGTATGCAA | 1.001 ± 0.0093 |
| GGGTATGCGA | 0.984 ± 0.015 |
| GGGTATGGAG | 1.02 ± 0.02 |
| GGGTATGGGA | 0.99 ± 0.017 |
| GGGTATGGGC | 0.955 ± 0.014 |
| GGGTATGTGA | 0.961 ± 0.037 |
| GGGTATTACT | 1.03 ± 0.017 |
| GGGTATTATA | 0.996 ± 0.03 |
| GGGTATTATG | 1.02 ± 0.028 |
| GGGTCAATAG | 1.42 ± 0.051 |
| GGGTCACGTT | 0.997 ± 0.032 |
| GGGTCAGACG | 1.06 ± 0.086 |
| GGGTCATTAA | 0.9905 ± 0.0088 |
| GGGTCCAGGG | 1.228 ± 0.0082 |
| GGGTCCTACG | 1.12 ± 0.037 |
| GGGTCGGATG | 1.03 ± 0.033 |

| Sequence | switch fluorescence ratio |
| --- | --- |
| GGGTCGGGGC | 1.02 ± 0.017 |
| GGGTCGGGGG | 0.994 ± 0.04 |
| GGGTCTAATT | 0.9917 ± 0.0014 |
| GGGTCTCGTT | 1.01 ± 0.013 |
| GGGTCTGACT | 0.9998 ± 0.0017 |
| GGGTCTGTAA | 1.42 ± 0.61 |
| GGGTCTTGGG | 0.9482 ± 0.008 |
| GGGTGAAACA | 0.987 ± 0.069 |
| GGGTGAAAGC | 1 ± 0.017 |
| GGGTGAACTC | 0.988 ± 0.031 |
| GGGTGACGAG | 1 ± 0.038 |
| GGGTGACGCG | 1.01 ± 0.022 |
| GGGTGATCCT | 1.02 ± 0.073 |
| GGGTGATGGG | 0.977 ± 0.032 |
| GGGTGCAGGC | 0.675 ± 0.032 |
| GGGTGCATAG | 1.03 ± 0.045 |
| GGGTGCCAGT | 0.963 ± 0.011 |
| GGGTGCCGGG | 0.911 ± 0.12 |
| GGGTGCCGTG | 1.03 ± 0.047 |
| GGGTGCGCGT | 0.977 ± 0.011 |
| GGGTGCGGAG | 0.956 ± 0.035 |
| GGGTGCGGCG | 0.968 ± 0.035 |
| GGGTGCTTTG | 1.02 ± 0.029 |
| GGGTGGAAAG | 0.984 ± 0.041 |
| GGGTGGCCTA | 1 ± 0.015 |

| Sequence | switch fluorescence ratio |
| --- | --- |
| GGGTGGCGCC | 0.988 ± 0.012 |
| GGGTGGGAGT | 1.026 ± 0.0097 |
| GGGTGGGATT | 0.986 ± 0.018 |
| GGGTGGGCGC | 1.01 ± 0.058 |
| GGGTGGGGAA | 0.963 ± 0.075 |
| GGGTGGGGTT | 0.991 ± 0.017 |
| GGGTGGTTGG | 0.999 ± 0.0088 |
| GGGTGTAATT | 1 ± 0.016 |
| GGGTGTACAA | 0.98 ± 0.019 |
| GGGTGTACGG | 1.04 ± 0.024 |
| GGGTGTATGG | 0.981 ± 0.012 |
| GGGTGTGAAC | 0.9859 ± 0.0046 |
| GGGTGTGGAC | 1.04 ± 0.023 |
| GGGTGTGGAG | 1.01 ± 0.012 |
| GGGTGTGGTA | 0.9967 ± 0.0096 |
| GGGTGTTCTG | 1.01 ± 0.018 |
| GGGTGTTGCT | 1 ± 0.017 |
| GGGTGTTTGG | 1.03 ± 0.026 |
| GGGTTAAGTT | 1 ± 0.027 |
| GGGTTAATAT | 1.04 ± 0.055 |
| GGGTTAATCT | 0.9983 ± 0.0016 |
| GGGTTAATTC | 1.03 ± 0.088 |
| GGGTTACTGT | 0.985 ± 0.012 |
| GGGTTAGGAT | 0.98 ± 0.029 |
| GGGTTAGGTC | 1.02 ± 0.013 |

| Sequence | switch fluorescence ratio |
| --- | --- |
| GGGTTAGTAG | 1 ± 0.017 |
| GGGTTAGTGG | 0.976 ± 0.032 |
| GGGTTATGAA | 0.994 ± 0.022 |
| GGGTTATGGT | 0.998 ± 0.028 |
| GGGTTATTGG | 0.991 ± 0.04 |
| GGGTTATTTC | 1.02 ± 0.023 |
| GGGTTCAAAG | 0.9818 ± 0.006 |
| GGGTTCAAGG | 0.995 ± 0.048 |
| GGGTTCAGGT | 1.0068 ± 0.00055 |
| GGGTTCAGTG | 0.982 ± 0.026 |
| GGGTTCATGG | 1.01 ± 0.047 |
| GGGTTCATTT | 1.019 ± 0.0015 |
| GGGTTCCAGG | 1.26 ± 0.098 |
| GGGTTCGGTG | 1.01 ± 0.039 |
| GGGTTCTATT | 1 ± 0.014 |
| GGGTTCTTC | 1.05 ± 0.1 |
| GGGTTCTTGT | 1.04 ± 0.057 |
| GGGTTCTTTA | 0.997 ± 0.048 |
| GGGTTGACCT | 1.07 ± 0.067 |
| GGGTTGAGGT | 0.9843 ± 0.0092 |
| GGGTTGATAG | 1.01 ± 0.021 |
| GGGTTGATCG | 0.9875 ± 0.0046 |
| GGGTTGCAAC | 1.24 ± 0.32 |
| GGGTTGCTGG | 1 ± 0.03 |
| GGGTTGCTTA | 0.99 ± 0.023 |
